Assay results: the supplement of paper PMC10724198
± gives the standard deviation of the averaged measurements.

How the values were obtained:
[1] = test system: Saccharomyces cerevisiae; assay: protein stability index of tFT-peptide fusion (C-terminal peptide) (PSI (0-1 scale)); higher = more stable (slower turnover)
Procedure: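 MPS profiling in S. cerevisiae of the tFT-X12 degron library: putative degron peptides plus stable controls, 12 aa, fused to the C-terminus of a sfGFP-mCherry timer. Cells are FACS-sorted into 8 mCherry/sfGFP bins and deep-sequenced. PSI runs from 0 (unstable) to 1 (stable). Backgrounds are wild type, das1Δ and doa10Δ at 30 °C, and wild type, das1Δ, cdc34-1 and cdc53-1 at 37 °C; 2-3 technical replicates each.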

[2] = test system: Saccharomyces cerevisiae; assay: as above; settings: genetic background: wild type; temperature: 30 C
[3] = genetic background: cdc34-1, temperature: 37 C
[4] = genetic background: cdc53-1, temperature: 37 C
[5] = genetic background: das1 deletion, temperature: 30 C
[6] = genetic background: das1 deletion, temperature: 37 C
[7] = genetic background: doa10 deletion, temperature: 30 C
[8] = genetic background: wild type, temperature: 30 C
[9] = genetic background: wild type, temperature: 37 C
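Note: PSI is a weighted mean of sequencing reads over stability bins, variants kept only with over 10 reads, mCherry proximal and sfGFP distal, peptide attached via GGGS linker.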

Sequence	protein stability index [1, 3]	protein stability index [1, 4]	protein stability index [1, 5]	protein stability index [1, 6]	protein stability index [1, 7]	protein stability index [1, 8]	protein stability index [1, 9]	protein stability index [2]
MALAVRVVVCGA	0.0333 ± 0.0083	0.0649 ± 0.022	0.125 ± 0.025	0.131 ± 0.0024	0.0868 ± 0.014	0.107 ± 0.02	0.107 ± 0.021	0.184 ± 0.043
MAMMQTILIIIH	0.0295 ± 0.01	0.158 ± 0.14	0.117 ± 0.044	0.186 ± 0.014	0.0894 ± 0.029	0.119 ± 0.026	0.173 ± 0.0081	0.171 ± 0.0028
MDLVSEYKIKVN	0.62 ± 0.026	0.712 ± 0.053	0.56 ± 0.034	0.704 ± 0.02	0.176 ± 0.006	0.226 ± 0.038	0.473 ± 0.0088	0.31 ± 0.004
MFRSEVSWKLCC	0.619 ± 0.071	0.727 ± 0.015	0.624 ± 0.019	0.753 ± 0.011	0.1344 ± 0.00047	0.174 ± 0.025	0.409 ± 0.025	0.285 ± 0.054
MSCILFCCLVPF	0.545 ± 0.039	0.57 ± 0.034	0.423 ± 0.023	0.568 ± 0.014	0.381 ± 0.012	0.402 ± 0.029	0.549 ± 0.017	0.4748 ± 0.0035
NASWAFLCYFCV	0.646 ± 0.03	0.69 ± 0.013	0.538 ± 0.018	0.68493 ± 0.0006	0.347 ± 0.018	0.374 ± 0.022	0.557 ± 0.04	0.481 ± 0.028
NMRYRATIEACA	0.258 ± 0.043	0.319 ± 0.0071	0.222 ± 0.029	0.397 ± 0.005	0.174 ± 0.021	0.226 ± 0.029	0.38 ± 0.023	0.356 ± 0.0097
NTYKICVVSVTS	0.449 ± 0.014	0.552 ± 0.021	0.355 ± 0.047	0.587 ± 0.0069	0.267 ± 0.019	0.299 ± 0.035	0.578 ± 0.018	0.413 ± 0.018
NYVFRIIIVLDA	0.269 ± 0.01	0.408 ± 0.11	0.267 ± 0.035	0.429 ± 0.042	0.227 ± 0.059	0.245 ± 0.011	0.349 ± 0.031	0.444 ± 0.0058
PALYLSLWFLFP	0.534 ± 0.056	0.606 ± 0.023	0.445 ± 0.043	0.603 ± 0.023	0.452 ± 0.013	0.456 ± 0.037	0.5761 ± 0.0011	0.512 ± 0.045
PAVRRLTGLMLM	0.6812 ± 0.0047	0.7493 ± 0.0057	0.612 ± 0.014	0.737 ± 0.024	0.276 ± 0.011	0.321 ± 0.0051	0.566 ± 0.022	0.413 ± 0.011
PCNVLWYSLFLF	0.487 ± 0.015	0.597 ± 0.025	0.452 ± 0.027	0.597 ± 0.018	0.175 ± 0.018	0.19 ± 0.017	0.34 ± 0.0062	0.271 ± 0.0091
PFAGRLWVTSSF	0.707 ± 0.052	0.7726 ± 0.005	0.671 ± 0.011	0.7908 ± 0.0063	0.685 ± 0.021	0.674 ± 0.022	0.7558 ± 0.0072	0.752 ± 0.035
PFYQSGGLVVVV	0.58 ± 0.024	0.63 ± 0.017	0.469 ± 0.034	0.62927 ± 0.00041	0.437 ± 0.021	0.464 ± 0.023	0.583 ± 0.029	0.21 ± 0.039
PGHICVPVLGTA	0.453 ± 0.021	0.467 ± 0.0061	0.348 ± 0.037	0.513 ± 0.0077	0.3072 ± 0.003	0.357 ± 0.027	0.517 ± 0.036	0.447 ± 0.027
